Measurements as given in a protein production outcome set (Wang et al. 2014).

Test: label from the status in PepcDB records

| Sequence | protein production |
| --- | --- |
| MSSSLLSVLKEKSRSLKIRNKPVKMTSQERMIVHRCRFVDFTPATITSLAFSHKSNINKLTPSDLRLAIGRSNGNIEIWNPRNNWFQEMVIEGGKDRSIEGLCWSNVNGESLRLFSIGGSTVVTEWDLATGLPLRNYDCNSGVIWSISINDSQDKLSVGCDNGTVVLIDISGGPGVLEHDTILMRQEARVLTLAWKKDDFVIGGCSDGRIRIWSAQKNDENMGRLLHTMKVDKAKKESTLVWSVIYLPRTDQIASGDSTGSIKFWDFQFATLNQSFKAHDADVLCLTTDTDNNYVFSAGVDRKIFQFSQNTNKSQKNNRWVNSSNRLLHGNDIRAICAYQSKGADFLVSGGVEKTLVINSLTSFSNGNYRKMPTVEPYSKNVLVNKEQRLVVSWSESTVKIWTMGTDSSTEQNYKLVCKLTLKDDQNISTCSLSPDGQVLVVGRPSTTKVFHLQPVGNKLKVTKLDNDLLLRTSTKLVKFIDNSKIVICSCEDDVFIVDLESEEDEKPQEVELLEVTSTKSSIKVPYINRINHLEVDQNIAVISRGCGVVDILDLKARISKPLARLNNFITAVHINTSRKSVVVITADNKIYEFNMNLNSEAENEDSESVLTQWSKNNTDNLPKEWKTLKENCVGIFSDIENSSRLWFWGATWISRIDFDVDFPINKRRKQKKRTHEGLTITDESNFMNDEEDDEDDDIDMEISENLNVLLNQGNKIKSTDVQRNEESSGHFFFTDKYKPLLFVDLISSNELAIIERNPLTFHSKQKAFIQPKLVF | failed |
| MVRANKRNEALRIESALLNKIAMLGTEKTAEAVGVDKSQISRWKRDWIPKFSMLLAVLEWGVVDDDMARLARQVAAILTNKKRPAATERSEQIQMEF | not failed |
| MNKLYIGNLSPAVTADDLRQLFGDRKLPLAGQVLLKSGYAFVDYPDQNWAIRAIETLSGKVELHGKIMEVDYSVSKKLRS | not failed |
| MKHGMNARKQLWIAVICMTFVVILGTIGFMTIEEISLFQAFWMTMITVLTVGYGDAVPVTQAGKVFALLIIPVGVGIVTYAIGVVAAMIIEGNLFHAVRRKKMDKQIAQLKNHIIVCGCGRVGLQVVHELQEKNIPFVVVDKDESILEQEKLLFVHGDATEDQVLHNAGILKAAGLVAIVANDAENVFITLTARGLNDTIKIVARSEKPETEEKLRRAGANKVINPSSMAGIHIAKGIANPLTVHYIDTVLYGIEQSFVIEEILVGKDSILVGKSLLESNVRNQFDVTILAISRNGDIIHNPAGQEKLKERDMIIVFGSVEKLGQFEKELQSTR | failed |
| MKNKQSKSLLIKSMALTGLFTISACANEELADTLLTNTNIYGHNNATSLAIKDGKIVYIGDEQNAMNHVSNKTQVIDLKGGYLLPGFVDNHNHVFEAASEIGSDCLLDEDKDINGYIRSLRACKEELEEGEWLLGYGHELSQLMQDNDTSPLAILDEIFPNNPVIIMEQTSHSMWVNSLALAEAGITIHSKEPQGGKILKDKTTGKLLGILLDNAGDLLMEQAWKNQPNLAEANYQGLLNGLAQASKHGITTIGDGRLYWKRGWLETWLTAEKNQALTARVSLRPWVYPADEANEQLAFFKKIKSNDKQRLIQINQVKIYSDGIIINGTASTLDPYDWSYTPQIPHGLEYIPATKMAWWLSELNKIGYGAHIHAIGDAGVRNTLNAIETLRAQGATTAYSMTHLEMVSAQDIKRFAPLRVDADFQLGSDYIAEQDHDWAIPFIGKQRAHALLPINAILNTGANVTLSSDWNVNDINPLVGIANAVYLKNMGIADIHQAIAAYTINPAQALGLDDITGTLEVGKSADIVMLERDITQSTPKQIANTRVLMTWLEGEVVYDEQTE | failed |
| MAAKTRTFRAAADAWLKAKEEKGLAPSTLNKIRTYLDKDILPALGDKPLDEITRTDCAELQASIEARDAHNVAEKCRTWINQIFGRAIGLGLTENDPGSRLRDIAAQAPKTQLEHHHHHH | failed |
| MNREELFDVTVIGGGPAGLYSAFYSGLREMKTKIIEFQPQLGGKIHVYPEKMIWDIGGLLPVTGEKLIEQLVQQGLTFQPEVVLNTKIESIIRNKDGIFTLKTSTGEEHFSKTVIVATGSGILNPQKLSIEGAERFEVSNLNYTVKSLKRFKNKTVIISGGGNSAIDWANELEPIAKKVYLTYRKEELSGHEAQVKQLMNSSAECFFNTSITTLIAGDNHEAIEYVELTNHETGEVSQLAIDEVIINHGYERDITLLENSELDVAIIDNYYIAGNANSESSVDGLYAAGDILKHEGKLHLIAGAFQDAGNAVNKAKQFIQPDASEYGMVSSHNEVFKKRNRELIKQMMK | failed |
| MSSGKVIVYGGKGALGSAILEFFKKNGYTVLNIDLSANDQADSNILVDGNKNWTEQEQSILEQTASSLQGSQVDGVFCVAGGWAGGSASSKDFVKNADLMIKQSVWSSAIAAKLATTHLKPGGLLQLTGAAAAMGPTPSMIGYGMAKAAVHHLTSSLAAKDSGLPDNSAVLTIMPVTLDTPMNRKWMPNADHSSWTPLSFISEHLLKWTTETSSRPSSGALLKITTENGTSTITPQ | not failed |
| MVDNKKKRQYPLVPLSVIQSALEEDPISIKMILKHYHSYIVKLCLTNGFNEAEQFITYVDEYMLRQLEIKLIEAILKFKINLEHHHHHH | failed |
| MKKASEYYYYLGDICWRKEKTDSAKYYFMEGIKTDETYAMNYVGIGIITMKSNATEGQRSFDKALQMTSQKNSQVLNAIGEYYILEADKAELPKGIALLKKSTEIDAKNAMSWILLGDAYGKQAEGSKQAESYGKAANLFHSVPLLKMKYGKMYAAARNKDLSIKYYNEGLAADPTYGPIYRELGDLYNRFRQYDLAIQNYKKYLTYIDSNDDVEFRYADFLFKNNNYAEAIEVFNKLEAKKYNSPYIYNRRAVCYYELEHHHHHH | failed |
| MKILKNSYESYIIAEFFKYFLITFLFFFFVFFINQILFFMRILLQNYVPFFKAFIFIIYSLPMVIALSPPFASLISVILTIHKFKLHNEILAFRSIGISIFDLLVPFFKLGIVIAFVSFISNDILLPLGSIGRLKIFNEIKEEVPHLVLKPYSSKQYGDLIFVSGEKSENGYKNVTFFDNTGLKGFDRIFMAKNLDIRKENFQVYFILNDVLSIALTDSESGFYDYFYADKMKYSIDQVTFSDSFLLNYVTPSQMSMRDVIKLIKKQNNLIADSNIKNNLEGDFLSLNFSNLYLNYLYNQNYYVDESYVFENLNYMYNLNLNFKPYQDRSMKQNLALFNLEFYQKISLPLSVLFFIFLAFSMGMYSNRKYSIILELVISIIVCVFYWVMFIGGKVYTVQYAPSPIIVTILPNLILIIAGAILFLRLLKK | failed |
| MEDSTATATSSSSTHYFSIFTNYPLISAVTSFTIAQFIKLFTSWYRERRWDLKQLIGSGGMPSSHSATVTALAVAIGLQEGFGGSHFAIALILASVVMYDATGVRLHAGRQAEVLNQIVYELPAEHPLAESRPLRELLGHTPPQVCRHMT | failed |
| MEQPYVYAYPQGSGPSGAPTPQAGGVVVDPKYCAPYPIDMAIVRKMMSLTDGNFVITDVNGNLLFKVKEPVFGLHDKRVLLDGSGTPVVTLREKMVSMHDRWQVFRGGSTDQRDLLYTVKRSSMLQLKTKLDVFLGHNKDEKRCDFRVKGSWLERSCVVYAGESDAIVAQMHRKHTVQSVFLGKDNFSVTVYPNVDYAFIASLVVILDDVNREDRAA | not failed |
| MNKIQVLDPVTIDKIAAGEVIERPASVVKELVENAIDAGATAIVTEIEEGGISMIRIADNGCGMDASDVPNAFLRHSTSKIRTVEDLVHIGSLGFRGEALSSIAAVSQVEMITKTKDQVLGTRYRIAGGKEEELDETGARDGTTFLIRQLFYNTPARRKFLKTPMTEASHVGDLLTRMALSHPEISFQFINNGQSKLHTSGNGNLKDVIYHVYGREIAANLLAADYESPGLKIRGFLGKPLISRGNRNFENYFINGRYVKSSIISKAIEDAYKDFTMQHKYPFVVLHIEIDGEHVDVNVHPTKMELRFNNQQEVYNSIYAAVDHGLHAEELIPHVEVDAPKAAAPMKQEGGAPHAAQKKDNPVVPDRTTSVQPAPSAKKSVPAPEERTLDYFMQKMKERVAAYHAQQNQEAPKKAPDVKVSAQPSEDRREAPSDRVCETPEYAAQQLNLFEENLVERKVQAEYKIIGQVFETYWLVEFNDSLYIIDQHAAHERVLYEKTLKSMKTREFTSQFISPPIVLDLSMQEAELLNQYMDQFTRIGFEIEEFGQESYAVRAVPGNLFGIAKKDLLLQMLDGLSDEVSRNLSPDMIDEKVASMSCKAAVKGNMKLSATEVDSLIGELLTLENPYHCPHGRPTIIAMTKRELEKKFKRIV | failed |
| MHSSSRASFTTRGDIRRQVEGFSASGERNKDTVVDLSTFFAERGYSNNQAPTKYWEEKLVTIGNVVVPKWVPVKERNSSNKQKEGEDEVFIGFEAIYYPEQPPERQPITLYQEENKVEEEEQSRE | not failed |
